In patent publication US20240174741A1 (IMMUNOME, published 2024):

Assays:
Human IL1RAPL1-Fc = target: T1, Human IL1RAPL1-Fc (human, UniProt Q9NZN1 19-357, limits assumed); assay: MSD plate assay, IL-38 on plate-bound IL1RAPL1-Fc, detected with biotinylated anti-IL-38 clone H127C
T1 construct: Bought reagent
T1 sequence (looked up): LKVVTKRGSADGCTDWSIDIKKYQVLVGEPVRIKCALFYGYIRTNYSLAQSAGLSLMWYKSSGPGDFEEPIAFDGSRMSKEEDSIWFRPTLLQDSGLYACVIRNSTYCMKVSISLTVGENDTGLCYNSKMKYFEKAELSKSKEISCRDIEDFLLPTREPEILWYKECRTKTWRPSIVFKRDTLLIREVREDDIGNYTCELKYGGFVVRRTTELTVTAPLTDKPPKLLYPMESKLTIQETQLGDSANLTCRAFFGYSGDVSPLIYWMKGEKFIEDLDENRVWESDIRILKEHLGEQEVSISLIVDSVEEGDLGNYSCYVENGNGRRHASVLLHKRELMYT
Procedure: (§1) Neutralization of human IL-38 binding to IL1RAPL1 or IL-36R. Human IL1RAPL1-Fc (Sino Biological, #10177-H02H) and human IL-36R-Fc (R&D Systems) were diluted in coating Buffer (50 mM Carbonate-Bicarbonate Buffer, pH 9.4) at final concentration of 0.5 μg/mL and coated on MSD high bind plates (MSD) for approximately two hours at RT. Recombinant human IL-38 (Adipogen) was diluted in assay Diluent (1% BSA, 0.1% Tween 20, in 1×PBS). For antibody testing, anti-IL-38 antibodies were pre-incubated with IL-38 for approximately one hour at RT. IL-38 or antibody-IL-38 mixture was transferred to pre-coated MSD plates and incubated for approximately two hours at RT. After washing, the MSD plate was incubated with biotinylated mouse anti-human IL-38 (clone H127C, Thermo Fisher) at final concentration of 100 ng/mL and Sulfo-Tag-Streptavidin (MSD) at final concentration of 100 ng/mL for 1 hour at RT. Binding of IL-38 to plate-bound IL1RAPL1-Fc or human IL-36R-Fc was detected using the Meso Sector S 600 plate reader. Data are plotted using GraphPad Prism version 9.0.1. Dose response curves were fitted with “[Inhibitor] vs. response—Variable slope (four parameters)” method.

human IL-36R-Fc = target: T2, human IL-36R-Fc (human, UniProt Q9HB29 20-335, limits assumed); assay: MSD plate assay, IL-38 on plate-bound IL-36R-Fc, detected with biotinylated anti-IL-38 clone H127C
T2 construct: Bought reagent
T2 sequence (looked up): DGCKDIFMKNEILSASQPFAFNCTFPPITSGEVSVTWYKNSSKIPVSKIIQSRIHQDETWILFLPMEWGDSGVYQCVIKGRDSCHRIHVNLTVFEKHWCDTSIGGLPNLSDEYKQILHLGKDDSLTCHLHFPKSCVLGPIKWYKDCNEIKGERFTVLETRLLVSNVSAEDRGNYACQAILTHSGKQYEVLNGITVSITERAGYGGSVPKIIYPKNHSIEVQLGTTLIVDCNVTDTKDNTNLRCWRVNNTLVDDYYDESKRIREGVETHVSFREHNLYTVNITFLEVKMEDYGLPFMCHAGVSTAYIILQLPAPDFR
Procedure: as §1

binding result (Human IL1RAPL1-Fc): binds | binding result (human IL-36R-Fc): binds
B1: human interleukin-38 (IL-38) (ligand, UniProt Q8WWZ1 1-152, looked up)
chain: MCSLPMARYYIIKYADQKALYTRDGQLLVGDPVADNCCAEKICILPNRGLARTKVPIFLGIQGGSRCLACVETEEGPSLQLEDVNIEELYKGGEEATRFTFFQSSSGSAFRLEAAAWPGWFLCGPAEPQQPVQLTKESEPSARTKFYFEQSW
notes: One entry is used for all sources of human IL-38; The Adipogen protein is called full length; also called IL1F10/IL38; IL1F10
